Each block holds one binder with its values, some of them ahead of it.
Experiments:
[1] = biological target: T1, human CDH6 with EC3 removed, on HEK293T cells (HEK293T-hCDH6-EC3 deletion) (human, UniProt P55285 54-790); experiment: FACS, HEK293T-hCDH6-EC3 deletion cells
T1 construct: Signal peptide not removed here
T1 sequence: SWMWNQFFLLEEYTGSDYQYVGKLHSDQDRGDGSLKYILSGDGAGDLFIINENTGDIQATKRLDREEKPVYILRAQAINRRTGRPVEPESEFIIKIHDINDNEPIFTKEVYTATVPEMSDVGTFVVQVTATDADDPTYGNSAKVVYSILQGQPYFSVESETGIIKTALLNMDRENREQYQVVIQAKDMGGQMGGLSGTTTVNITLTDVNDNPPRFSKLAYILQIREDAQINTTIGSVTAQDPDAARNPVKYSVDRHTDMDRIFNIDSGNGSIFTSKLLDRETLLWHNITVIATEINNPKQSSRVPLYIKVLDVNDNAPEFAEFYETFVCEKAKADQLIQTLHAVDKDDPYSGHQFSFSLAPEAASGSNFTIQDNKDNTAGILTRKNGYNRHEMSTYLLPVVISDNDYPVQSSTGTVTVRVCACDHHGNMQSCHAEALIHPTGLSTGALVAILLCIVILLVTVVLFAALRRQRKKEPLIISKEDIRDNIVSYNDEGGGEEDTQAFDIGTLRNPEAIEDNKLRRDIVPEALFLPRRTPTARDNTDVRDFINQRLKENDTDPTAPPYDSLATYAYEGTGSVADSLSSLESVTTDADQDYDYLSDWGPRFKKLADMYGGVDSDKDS
Excerpt: To confirm the binding epitope of the CDH6 antibody, the sequences after removal of these 5 regions were constructed into pcDNA3.1 vectors (purchased from Youbio, Cat. No. VT1001), and transfected into HEK293T cells (purchased from Cell Bank of Chinese Academy of Sciences, Cat. No. SCSP-502) to obtain 5 CDH6 truncated cell lines: HEK293T-hCDH6-EC1 deletion, HEK293T-hCDH6-EC2 deletion, HEK293T-hCDH6-EC3 deletion, HEK293T-hCDH6-EC4 deletion, and HEK293T-hCDH6-EC5 deletion.
The binding activity of the CDH6 chimeric antibodies to these 5 cell lines was assayed by FACS.

[2] = biological target: T2, human CDH6 with EC1 removed, on HEK293T cells (HEK293T-hCDH6-EC1 deletion) (human, UniProt P55285 160-790); experiment: FACS, HEK293T-hCDH6-EC1 deletion cells
T2 construct: Signal peptide not removed here
T2 sequence: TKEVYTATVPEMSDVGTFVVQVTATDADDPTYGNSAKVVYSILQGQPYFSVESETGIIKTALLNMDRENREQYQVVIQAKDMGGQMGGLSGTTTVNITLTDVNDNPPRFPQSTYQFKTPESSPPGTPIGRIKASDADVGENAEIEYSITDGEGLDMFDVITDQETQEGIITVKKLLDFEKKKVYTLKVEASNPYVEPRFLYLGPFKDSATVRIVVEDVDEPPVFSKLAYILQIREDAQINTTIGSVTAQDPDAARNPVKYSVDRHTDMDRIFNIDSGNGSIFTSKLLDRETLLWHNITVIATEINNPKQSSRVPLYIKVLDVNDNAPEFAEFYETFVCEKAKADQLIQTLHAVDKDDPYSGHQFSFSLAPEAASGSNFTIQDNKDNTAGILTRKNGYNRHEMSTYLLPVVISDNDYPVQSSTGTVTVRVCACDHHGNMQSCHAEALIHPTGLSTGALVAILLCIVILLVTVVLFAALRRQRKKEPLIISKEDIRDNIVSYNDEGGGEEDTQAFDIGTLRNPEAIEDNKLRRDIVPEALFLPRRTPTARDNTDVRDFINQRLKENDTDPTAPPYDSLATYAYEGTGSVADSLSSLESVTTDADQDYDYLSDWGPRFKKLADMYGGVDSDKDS

[3] = biological target: T3, human CDH6 on tumor cells (OVCAR3 cells, PA-1 cells) (human, UniProt P55285 54-790); experiment: FACS, OVCAR3 cells, 4° C. arm of endocytosis assay
T3 sequence: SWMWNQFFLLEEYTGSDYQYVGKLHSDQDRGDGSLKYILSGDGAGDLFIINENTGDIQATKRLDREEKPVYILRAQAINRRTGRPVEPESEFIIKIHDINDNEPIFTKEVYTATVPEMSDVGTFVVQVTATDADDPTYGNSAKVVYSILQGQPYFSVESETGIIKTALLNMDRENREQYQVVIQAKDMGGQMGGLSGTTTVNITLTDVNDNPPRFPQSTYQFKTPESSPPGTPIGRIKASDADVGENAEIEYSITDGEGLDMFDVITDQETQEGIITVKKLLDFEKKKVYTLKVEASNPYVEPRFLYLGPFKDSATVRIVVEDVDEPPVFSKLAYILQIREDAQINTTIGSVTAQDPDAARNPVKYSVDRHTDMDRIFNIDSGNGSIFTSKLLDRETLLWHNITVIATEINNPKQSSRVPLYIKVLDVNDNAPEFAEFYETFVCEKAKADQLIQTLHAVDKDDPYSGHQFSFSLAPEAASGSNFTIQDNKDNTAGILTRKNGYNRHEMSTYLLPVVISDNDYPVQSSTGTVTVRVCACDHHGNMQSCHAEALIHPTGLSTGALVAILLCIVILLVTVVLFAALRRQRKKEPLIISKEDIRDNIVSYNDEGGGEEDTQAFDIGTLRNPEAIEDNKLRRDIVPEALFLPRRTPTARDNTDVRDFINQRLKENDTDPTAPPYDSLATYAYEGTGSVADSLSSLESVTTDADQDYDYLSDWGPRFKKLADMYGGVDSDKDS
Protocol: OVCAR3 cells were cultured until a confluence of 90% was reached, the medium was removed by pipetting, the cells were washed once with PBS, and then treated with an enzyme-free cell dissociation solution (Versene, purchased from Gibco, Cat. No. 15040-066) and the cells were collected. The cells were washed once with PBS, counted, resuspended to 2×10⁶ cells/mL in an FACS buffer (PBS+2% FBS), and then added to two 96-well plates at 50 μL/well. The chimeric antibodies were diluted with FACS buffer (PBS+2% FBS) to 10 μg/mL and separately added to the two 96-well plates at 50 μL/well, and the plates were incubated at 4° C. for 1 h. After the cells were washed 3 times with PBS, the cells were resuspended in an FACS buffer. One 96-well plate was incubated at 4° C. for 1 h, and the other 96-well plate was incubated at 37° C. for 1 h. […] After the plates were centrifuged and washed 2 times with PBS, the cells were resuspended in an FACS buffer. The mean fluorescence intensity (MFI) was measured using FACS Canton II (BD). The chimeric antibodies tested all had good endocytic activity.
Some of the antibodies were selected for the endocytic activity assay, and the method for assaying the endocytic activity of the humanized antibodies in OVCAR3 cells was the same as that in 2.4. The humanized antibodies tested all had good endocytic activity.

B1: CHI-CDH6-7 (antibody, human IgG1, kappa, V domains shown)
VH: EVKLVESGGGLVKPGGSLKVSCAASGFTFSDHGMAWVRQAPGKGPEWVAFISNLAYSIYYADTVTGRFTISRENAKNTLYLEMSSLRSEDTAMYYCARVYVKWYFDVWGAGTTVTVSS
VL: DIQMTQSPASLSASVGETVTITCRASENIDSYLAWYQQKQGKSPQLLVFAATLLADGVPSRFSGSGSGTQYSLKINSLQSEDVARYYCQHYYSTPLTFGAGTKLELKR
notes: also called CH1-CDH6-7; chimeric antibody of murine CDH6-7
- Max MFI [1]: 9060 MFI
- binding result [2]: no binding

B3: CHI-CDH6-5 (antibody, human IgG1, kappa, V domains shown)
VH: QVQLQQSGAELVRPGTSVKMSCKAAEYTFTNYWIGWVKQRPGHGLEWIGDLYPGGDHANYNEKFEGKATLTADTSSSTAYMQLSSLTSEDSAIYYCARGMLTTGFDSWGQGTTLTVSS
VL: DIVMSQSPSSLAVSAGEKVTMSCKSSQSLFNSRTRKNYLAWYQQKPGQSPKLLIYWASTRESGVPDRFTGSGSGTDFTLTISSVQAEDLAVYYCKQSYYLRTFGGGTKLEIKR
notes: also called CH1-CDH6-5; chimeric antibody of murine CDH6-5
- Max MFI [1]: 12200 MFI
- binding result [2]: no binding

B4: CHI-CDH6-4 (antibody, human IgG1, kappa, V domains shown)
VH: QVQLQQSGPELVKPGASVKISCKASGYAFSNFWMNWVKQRPGKGLEWIGWIYPGDGDTNYNGKFKDKATLTADKSSSTAYIQLSSLTSEDSAVYFCARLYDAWGFFDYWGQGTTLTVSS
VL: QIVLTQSPAIMSASPGQKVTITCSASSSVNYMHWYQQKLGSSPKLWIYDKSKLAPGVPARFSGSGSGTSYSLTISSMEAEDAASYFCHQWSSYPPMTFGGGTKLEIKR
notes: also called CH1-CDH6-4; chimeric antibody of murine CDH6-4
- Max MFI [1]: 15100 MFI

B6: CHI-CDH6-3 (antibody, human IgG1, kappa, V domains shown)
VH: QVQLQQPGAELVKPGASVKLSCKASGYTFTSYWIHWVKQRPGQGLEWIGEINPSNGVTNCNENFKSKATLTVDKSSSTAYMQLSSLTSEDSAVYYCTIPNLLWWYFDVWGAGTTVTVSS
VL: DIQMTQSPASLSVSVGETVTITCRASENIYSNLAWYQQKQGKSPQLLVYEATNLADGVPSRFSGSGSGTQYSLKINSLQSEDFGSYYCQHFWGTLWTFGGGTKLEIKR
notes: also called CH1-CDH6-3; chimeric antibody of murine CDH6-3
- Max MFI [1]: 689 MFI

B10: CHI-CDH6-1 (antibody, human IgG1, kappa, V domains shown)
VH: QVQLQQPGAELVRPGSSVKLSCKASGYTFTNYWMHWVKQRPIEGLEWIGDIDPSHSETHYTQKFKDKATLTVDKSSSTAYMQLSSLTSEDSAVYYCARGDLGRFDYWGQGTTLTVSS
VL: DIVLTQSPASLAVSLGQRATISCRASESVSIHGTHLMHWYQQKSGQPPKLLIYAASNLESGVPARFSGSGSETDFTFNIHPVEEEDAATYFCQQSFEDPWTFGGGTKLEIKR
notes: also called CHI-hCDH6-1; CH1-CDH6-1
- Max MFI [1]: 18000 MFI
- binding result [2]: no binding

More lines, main results first:

- Max MFI [1]: 755 MFI
B2: CHI-CDH6-14 (antibody, human IgG1, kappa, V domains shown)
VH: QIQLQQSGPELVKPGTSVKISCKASGYTFTDNYINWVRQRPGQGLEWIGWIYPGTGNSYYNEKFKGKATLTVDTSSSTAYMQFSSLTSEDSAVYLCASSYGDSFDYWGQGTTLTVSS
VL: DIQMTQTTSSLSASLGNRVTISCRASQDIRNYLNWYQQKPDGTFKLLISYTSRLHSGVPSRFSGSGSGTDYSLTVSNLEPEDIATYYCQQYSQLPWTFGGGSRLEIKR
notes: also called CHI-hCDH6-14; CH1-CDH6-14

- MFI_4° C. [3]: 20200 MFI
B5: hCDH6-1-H2L3 (antibody, V domains shown)
VH: EVQLVQSGAEVKKPGSSVKVSCKASGYTFTNYWMHWVRQAPGQGLEWMGDIDPSHSETHYTQKFKDRVTITVDKSTSTAYMELSSLRSEDTAVYYCARGDLGRFDYWGQGTTVTVSS
VL: DIQMTQSPSSLSASVGDRVTITCRASESVSIHGTHLMHWYQQKPGKPPKLLIYAASNLESGVPSRFSGSGSETDFTFTISSLQPEDIATYYCQQSFEDPWTFGGGTKVEIK
notes: Humanized

- Max MFI [1]: 16300 MFI
- MFI_4° C. [3]: 13600 MFI
B7: NOV0712 (antibody, human IgG1, kappa, V domains shown)
VH: QVQLLESGGGLVQPGGSLRLSCAASGFTFSSHGMHWVRQAPGKGLEWVSVISGSGSNTGYADSVKGRFTISRDNSKNTLYLQMNSLRAEDTAVYYCARQWGSYAFDSWGQGTLVTVSS
VL: DIQMTQSPSSLSASVGDRVTITCRASQSISSYLNWYQQKPGKAPKLLIYAVSTLQSGVPSRFSGSGSGTDFTLTISSLQPEDFATYYCQQSGTFPPTTFGQGTKVEIKR
notes: Positive control, variable regions from WO2018212136A1; also called positive control anti-human CDH6 antibody

- Max MFI [1]: 70 MFI
B8: CHI-CDH6-12 (antibody, human IgG1, kappa, V domains shown)
VH: EVNLVESGGGLVQPGDSLTLSCSASGFTFTDYYMSWVRQFPGKALEWLALIRNKANSYTTEYSASVKGRFTISRDNSQSILYLQMNALRAEDSATYYCARDSYYSHDGFAYWGQGTLVTVSA
VL: DIVLTQSPASLAVSLGQRATISCRASKSVSTSSYTYMHWYQQKPGQPPKLLIKFASYLESGVPARFSGSGSGTDFTLNIHPVEEEDAATYYCQHSREFPFTFGTGTKLEIKR
notes: also called CH1-CDH6-12; chimeric antibody of murine CDH6-12

- MFI_4° C. [3]: 11400 MFI
B9: DS-H01L02 (antibody, human IgG1, kappa, V domains shown)
VH: EVQLVQSGAEVKKPGASVKVSCKASGYTFTRNFMHWVRQAPGQGLEWMGWIYPGDGETEYAQKFQGRVTITADTSTSTAYMELSSLRSEDTAVYYCARGVYGGFAGGYFDFWGQGTLVTVSS
VL: DIQMTQSPSSLSASVGDRVTITCKASQNIYKNLAWYQQKPGKAPKLLIYDANTLQTGVPSRFSGSGSGSDFTLTISSLQPEDFATYFCQQYYSGWAFGQGTKVEIKR
notes: as for B7
- binding result [1]: no binding (tested: MFI ~1.5 times that of hIgG1 (65))

- MFI_4° C. [3]: 20500 MFI
B11: hCDH6-6-H2L2 (antibody, V domains shown)
VH: EVQLVQSGAEVKKPGASVKVSCKASGYTFTDYYMAWVRQAPGQGLEWMGYIFPNSGGTDYSQKFKGRVTLTVDKSTSTVYMELSSLRSEDTAVYYCARELGADYGDYYAMDHWGQGTTVTVSS
VL: DIQMTQSPSSLSASVGDRVTITCRASENIDSYLAWYQQKPGKSPKLLVYSATLLADGVPSRFSGSGSGTDYTLTISSLQPEDFATYYCQHYYRTPPTFGQGTKLEIK
notes: Humanized

Reference: patent publication US20260234242A1 (HAINAN SIMCERE ZAIMING PHARMACEUTICAL, published 2026)
